Data: patent US20100099610A1 (published 2010)

B1: S. ladakanum GlyPro-TGase mutant S250M (enzyme)
chain: GPDSDERVTPPAEPLDRMPDPYRPSYGRAETIVNNYIRKWQQVYSHRDGRKQQMTEEQREWLSYGCVGVTWVNSGQYPTNRLAFAFFDEDKYKNELKNGRPRSGETRAEFEGRVAKDSFDEAKGFQRARDVASVMNKALENAHDEGAYLDNLKKELANGNDALRNEDARSPFYSALRNTPSFKDRNGGNHDPSKMKAVIYSKHFWSGQDRSGSSDKRKYGDPEAFRPDRGTGLVDMSRDRNIPRSPTSPGEMFVNFDYGWFGAQTEADADKTVWTHGNHYHAPNGSLGAMHVYESKFRNWSDGYSDFDRGAYVVTFVPKSWNTAPDKVKQGWP
B2: S. ladakanum GlyPro-TGase mutant Y62L (enzyme)
chain: GPDSDERVTPPAEPLDRMPDPYRPSYGRAETIVNNYIRKWQQVYSHRDGRKQQMTEEQREWLSLGCVGVTWVNSGQYPTNRLAFAFFDEDKYKNELKNGRPRSGETRAEFEGRVAKDSFDEAKGFQRARDVASVMNKALENAHDEGAYLDNLKKELANGNDALRNEDARSPFYSALRNTPSFKDRNGGNHDPSKMKAVIYSKHFWSGQDRSGSSDKRKYGDPEAFRPDRGTGLVDMSRDRNIPRSPTSPGESFVNFDYGWFGAQTEADADKTVWTHGNHYHAPNGSLGAMHVYESKFRNWSDGYSDFDRGAYVVTFVPKSWNTAPDKVKQGWP
B3: S. ladakanum GlyPro-TGase mutant Y75L (enzyme)
chain: GPDSDERVTPPAEPLDRMPDPYRPSYGRAETIVNNYIRKWQQVYSHRDGRKQQMTEEQREWLSYGCVGVTWVNSGQLPTNRLAFAFFDEDKYKNELKNGRPRSGETRAEFEGRVAKDSFDEAKGFQRARDVASVMNKALENAHDEGAYLDNLKKELANGNDALRNEDARSPFYSALRNTPSFKDRNGGNHDPSKMKAVIYSKHFWSGQDRSGSSDKRKYGDPEAFRPDRGTGLVDMSRDRNIPRSPTSPGESFVNFDYGWFGAQTEADADKTVWTHGNHYHAPNGSLGAMHVYESKFRNWSDGYSDFDRGAYVVTFVPKSWNTAPDKVKQGWP
B4: S. ladakanum GlyPro-TGase mutant S250W (enzyme)
chain: GPDSDERVTPPAEPLDRMPDPYRPSYGRAETIVNNYIRKWQQVYSHRDGRKQQMTEEQREWLSYGCVGVTWVNSGQYPTNRLAFAFFDEDKYKNELKNGRPRSGETRAEFEGRVAKDSFDEAKGFQRARDVASVMNKALENAHDEGAYLDNLKKELANGNDALRNEDARSPFYSALRNTPSFKDRNGGNHDPSKMKAVIYSKHFWSGQDRSGSSDKRKYGDPEAFRPDRGTGLVDMSRDRNIPRSPTSPGEWFVNFDYGWFGAQTEADADKTVWTHGNHYHAPNGSLGAMHVYESKFRNWSDGYSDFDRGAYVVTFVPKSWNTAPDKVKQGWP
B5: S. ladakanum GlyPro-TGase mutant S250Q (enzyme)
chain: GPDSDERVTPPAEPLDRMPDPYRPSYGRAETIVNNYIRKWQQVYSHRDGRKQQMTEEQREWLSYGCVGVTWVNSGQYPTNRLAFAFFDEDKYKNELKNGRPRSGETRAEFEGRVAKDSFDEAKGFQRARDVASVMNKALENAHDEGAYLDNLKKELANGNDALRNEDARSPFYSALRNTPSFKDRNGGNHDPSKMKAVIYSKHFWSGQDRSGSSDKRKYGDPEAFRPDRGTGLVDMSRDRNIPRSPTSPGEQFVNFDYGWFGAQTEADADKTVWTHGNHYHAPNGSLGAMHVYESKFRNWSDGYSDFDRGAYVVTFVPKSWNTAPDKVKQGWP
B6: S. ladakanum GlyPro-TGase mutant S250Y (enzyme)
chain: GPDSDERVTPPAEPLDRMPDPYRPSYGRAETIVNNYIRKWQQVYSHRDGRKQQMTEEQREWLSYGCVGVTWVNSGQYPTNRLAFAFFDEDKYKNELKNGRPRSGETRAEFEGRVAKDSFDEAKGFQRARDVASVMNKALENAHDEGAYLDNLKKELANGNDALRNEDARSPFYSALRNTPSFKDRNGGNHDPSKMKAVIYSKHFWSGQDRSGSSDKRKYGDPEAFRPDRGTGLVDMSRDRNIPRSPTSPGEYFVNFDYGWFGAQTEADADKTVWTHGNHYHAPNGSLGAMHVYESKFRNWSDGYSDFDRGAYVVTFVPKSWNTAPDKVKQGWP
B7: S. ladakanum GlyPro-TGase mutant Y62M (enzyme)
chain: GPDSDERVTPPAEPLDRMPDPYRPSYGRAETIVNNYIRKWQQVYSHRDGRKQQMTEEQREWLSMGCVGVTWVNSGQYPTNRLAFAFFDEDKYKNELKNGRPRSGETRAEFEGRVAKDSFDEAKGFQRARDVASVMNKALENAHDEGAYLDNLKKELANGNDALRNEDARSPFYSALRNTPSFKDRNGGNHDPSKMKAVIYSKHFWSGQDRSGSSDKRKYGDPEAFRPDRGTGLVDMSRDRNIPRSPTSPGESFVNFDYGWFGAQTEADADKTVWTHGNHYHAPNGSLGAMHVYESKFRNWSDGYSDFDRGAYVVTFVPKSWNTAPDKVKQGWP
B8: S. ladakanum GlyPro-TGase mutant Y75M (enzyme)
chain: GPDSDERVTPPAEPLDRMPDPYRPSYGRAETIVNNYIRKWQQVYSHRDGRKQQMTEEQREWLSYGCVGVTWVNSGQMPTNRLAFAFFDEDKYKNELKNGRPRSGETRAEFEGRVAKDSFDEAKGFQRARDVASVMNKALENAHDEGAYLDNLKKELANGNDALRNEDARSPFYSALRNTPSFKDRNGGNHDPSKMKAVIYSKHFWSGQDRSGSSDKRKYGDPEAFRPDRGTGLVDMSRDRNIPRSPTSPGESFVNFDYGWFGAQTEADADKTVWTHGNHYHAPNGSLGAMHVYESKFRNWSDGYSDFDRGAYVVTFVPKSWNTAPDKVKQGWP
B9: S. ladakanum GlyPro-TGase mutant Y75C (enzyme)
chain: GPDSDERVTPPAEPLDRMPDPYRPSYGRAETIVNNYIRKWQQVYSHRDGRKQQMTEEQREWLSYGCVGVTWVNSGQCPTNRLAFAFFDEDKYKNELKNGRPRSGETRAEFEGRVAKDSFDEAKGFQRARDVASVMNKALENAHDEGAYLDNLKKELANGNDALRNEDARSPFYSALRNTPSFKDRNGGNHDPSKMKAVIYSKHFWSGQDRSGSSDKRKYGDPEAFRPDRGTGLVDMSRDRNIPRSPTSPGESFVNFDYGWFGAQTEADADKTVWTHGNHYHAPNGSLGAMHVYESKFRNWSDGYSDFDRGAYVVTFVPKSWNTAPDKVKQGWP
B10: S. ladakanum GlyPro-TGase mutant S250V (enzyme)
chain: GPDSDERVTPPAEPLDRMPDPYRPSYGRAETIVNNYIRKWQQVYSHRDGRKQQMTEEQREWLSYGCVGVTWVNSGQYPTNRLAFAFFDEDKYKNELKNGRPRSGETRAEFEGRVAKDSFDEAKGFQRARDVASVMNKALENAHDEGAYLDNLKKELANGNDALRNEDARSPFYSALRNTPSFKDRNGGNHDPSKMKAVIYSKHFWSGQDRSGSSDKRKYGDPEAFRPDRGTGLVDMSRDRNIPRSPTSPGEVFVNFDYGWFGAQTEADADKTVWTHGNHYHAPNGSLGAMHVYESKFRNWSDGYSDFDRGAYVVTFVPKSWNTAPDKVKQGWP
B11: S. ladakanum GlyPro-TGase mutant S250P (enzyme)
chain: GPDSDERVTPPAEPLDRMPDPYRPSYGRAETIVNNYIRKWQQVYSHRDGRKQQMTEEQREWLSYGCVGVTWVNSGQYPTNRLAFAFFDEDKYKNELKNGRPRSGETRAEFEGRVAKDSFDEAKGFQRARDVASVMNKALENAHDEGAYLDNLKKELANGNDALRNEDARSPFYSALRNTPSFKDRNGGNHDPSKMKAVIYSKHFWSGQDRSGSSDKRKYGDPEAFRPDRGTGLVDMSRDRNIPRSPTSPGEPFVNFDYGWFGAQTEADADKTVWTHGNHYHAPNGSLGAMHVYESKFRNWSDGYSDFDRGAYVVTFVPKSWNTAPDKVKQGWP
B12: S. ladakanum GlyPro-TGase mutant Y62N (enzyme)
chain: GPDSDERVTPPAEPLDRMPDPYRPSYGRAETIVNNYIRKWQQVYSHRDGRKQQMTEEQREWLSNGCVGVTWVNSGQYPTNRLAFAFFDEDKYKNELKNGRPRSGETRAEFEGRVAKDSFDEAKGFQRARDVASVMNKALENAHDEGAYLDNLKKELANGNDALRNEDARSPFYSALRNTPSFKDRNGGNHDPSKMKAVIYSKHFWSGQDRSGSSDKRKYGDPEAFRPDRGTGLVDMSRDRNIPRSPTSPGESFVNFDYGWFGAQTEADADKTVWTHGNHYHAPNGSLGAMHVYESKFRNWSDGYSDFDRGAYVVTFVPKSWNTAPDKVKQGWP
B13: S. ladakanum GlyPro-TGase mutant S250A (enzyme)
chain: GPDSDERVTPPAEPLDRMPDPYRPSYGRAETIVNNYIRKWQQVYSHRDGRKQQMTEEQREWLSYGCVGVTWVNSGQYPTNRLAFAFFDEDKYKNELKNGRPRSGETRAEFEGRVAKDSFDEAKGFQRARDVASVMNKALENAHDEGAYLDNLKKELANGNDALRNEDARSPFYSALRNTPSFKDRNGGNHDPSKMKAVIYSKHFWSGQDRSGSSDKRKYGDPEAFRPDRGTGLVDMSRDRNIPRSPTSPGEAFVNFDYGWFGAQTEADADKTVWTHGNHYHAPNGSLGAMHVYESKFRNWSDGYSDFDRGAYVVTFVPKSWNTAPDKVKQGWP
B14: S. ladakanum GlyPro-TGase mutant S250R (enzyme)
chain: GPDSDERVTPPAEPLDRMPDPYRPSYGRAETIVNNYIRKWQQVYSHRDGRKQQMTEEQREWLSYGCVGVTWVNSGQYPTNRLAFAFFDEDKYKNELKNGRPRSGETRAEFEGRVAKDSFDEAKGFQRARDVASVMNKALENAHDEGAYLDNLKKELANGNDALRNEDARSPFYSALRNTPSFKDRNGGNHDPSKMKAVIYSKHFWSGQDRSGSSDKRKYGDPEAFRPDRGTGLVDMSRDRNIPRSPTSPGERFVNFDYGWFGAQTEADADKTVWTHGNHYHAPNGSLGAMHVYESKFRNWSDGYSDFDRGAYVVTFVPKSWNTAPDKVKQGWP
B15: S. ladakanum GlyPro-TGase mutant Y62T (enzyme)
chain: GPDSDERVTPPAEPLDRMPDPYRPSYGRAETIVNNYIRKWQQVYSHRDGRKQQMTEEQREWLSTGCVGVTWVNSGQYPTNRLAFAFFDEDKYKNELKNGRPRSGETRAEFEGRVAKDSFDEAKGFQRARDVASVMNKALENAHDEGAYLDNLKKELANGNDALRNEDARSPFYSALRNTPSFKDRNGGNHDPSKMKAVIYSKHFWSGQDRSGSSDKRKYGDPEAFRPDRGTGLVDMSRDRNIPRSPTSPGESFVNFDYGWFGAQTEADADKTVWTHGNHYHAPNGSLGAMHVYESKFRNWSDGYSDFDRGAYVVTFVPKSWNTAPDKVKQGWP

Columns and labels:
[1] = molecular target: hGHQ40N (human, UniProt P01241 27-217); assay: cell-based or functional assay
[2] = molecular target: hGHQ141N (human, UniProt P01241 27-217); assay: cell-based or functional assay
Chain of hGHQ141N (P01241 27-217 Q167N): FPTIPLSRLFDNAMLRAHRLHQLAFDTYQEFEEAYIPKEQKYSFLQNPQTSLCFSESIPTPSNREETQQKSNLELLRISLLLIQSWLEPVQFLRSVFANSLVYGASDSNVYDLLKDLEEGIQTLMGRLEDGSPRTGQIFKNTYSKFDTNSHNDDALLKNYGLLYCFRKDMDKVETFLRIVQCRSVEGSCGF

Chain of hGHQ40N (P01241 27-217 Q66N): as the sequence (P01241 27-217 Q167N) above, with Q40N, N141Q counted along it

Binder	RSA Q141 [1]	RSA Q40 [2]
B1	3.25 relative to wild type TGase	2.22 relative to wild type TGase
B2	0.2 relative to wild type TGase	0.07 relative to wild type TGase
B3	0.18 relative to wild type TGase	0.06 relative to wild type TGase
B4	2.43 relative to wild type TGase	1.3 relative to wild type TGase
B5	1.92 relative to wild type TGase	1.62 relative to wild type TGase
B6	1.71 relative to wild type TGase	0.95 relative to wild type TGase
B7	0.28 relative to wild type TGase	0.1 relative to wild type TGase
B8	0.18 relative to wild type TGase	0.1 relative to wild type TGase
B9	0.18 relative to wild type TGase	0.06 relative to wild type TGase
B10	0.96 relative to wild type TGase	0.51 relative to wild type TGase
B11	3.99 relative to wild type TGase	1.86 relative to wild type TGase
B12	0.18 relative to wild type TGase	0.05 relative to wild type TGase
B13	4.23 relative to wild type TGase	2.57 relative to wild type TGase
B14	0.83 relative to wild type TGase	0.59 relative to wild type TGase
B15	0.19 relative to wild type TGase	0.1 relative to wild type TGase
